First the molecules themselves.
B1: Transcription intermediary factor 1-beta (Homo sapiens), Q13263 (parent)
chain: MAASAAAASAAAASAASGSPGPGEGSAGGEKRSTAPSAAASASASAAASSPAGGGAEALELLEHCGVCRERLRPEREPRLLPCLHSACSACLGPAAPAAANSSGDGGAAGDGTVVDCPVCKQQCFSKDIVENYFMRDSGSKAATDAQDANQCCTSCEDNAPATSYCVECSEPLCETCVEAHQRVKYTKDHTVRSTGPAKSRDGERTVYCNVHKHEPLVLFCESCDTLTCRDCQLNAHKDHQYQFLEDAVRNQRKLLASLVKRLGDKHATLQKSTKEVRSSIRQVSDVQKRVQVDVKMAILQIMKELNKRGRVLVNDAQKVTEGQQERLERQHWTMTKIQKHQEHILRFASWALESDNNTALLLSKKLIYFQLHRALKMIVDPVEPHGEMKFQWDLNAWTKSAEAFGKIVAERPGTNSTGPAPMAPPRAPGPLSKQGSGSSQPMEVQEGYGFGSGDDPYSSAEPHVSGVKRSRSGEGEVSGLMRKVPRVSLERLDLDLTADSQPPVFKVFPGSTTEDYNLIVIERGAAAAATGQPGTAPAGTPGAPPLAGMAIVKEEETEAAIGAPPTATEGPETKPVLMALAEGPGAEGPRLASPSGSTSSGLEVVAPEGTSAPGGGPGTLDDSATICRVCQKPGDLVMCNQCEFCFHLDCHLPALQDVPGEEWSCSLCHVLPDLKEEDGSLSLDGADSTGVVAKLSPANQRKCERVLLALFCHEPCRPLHQLATDSTFSLDQPGGTLDLTLIRARLQEKLSPPYSSPQEFAQDVGRMFKQFNKLTEDKADVQSIIGLQRFFETRMNEAFGDTKFSAVLVEPPPMSLPGAGLSSQELSGGPGDGP

These results are taken from IntAct's records for PubMed 21642969.

In the assay the parent is B1. The note with it: with chd3_human CHD3, Q12873.
Chain of chd3_human CHD3, Q12873 (Q12873 whole entry): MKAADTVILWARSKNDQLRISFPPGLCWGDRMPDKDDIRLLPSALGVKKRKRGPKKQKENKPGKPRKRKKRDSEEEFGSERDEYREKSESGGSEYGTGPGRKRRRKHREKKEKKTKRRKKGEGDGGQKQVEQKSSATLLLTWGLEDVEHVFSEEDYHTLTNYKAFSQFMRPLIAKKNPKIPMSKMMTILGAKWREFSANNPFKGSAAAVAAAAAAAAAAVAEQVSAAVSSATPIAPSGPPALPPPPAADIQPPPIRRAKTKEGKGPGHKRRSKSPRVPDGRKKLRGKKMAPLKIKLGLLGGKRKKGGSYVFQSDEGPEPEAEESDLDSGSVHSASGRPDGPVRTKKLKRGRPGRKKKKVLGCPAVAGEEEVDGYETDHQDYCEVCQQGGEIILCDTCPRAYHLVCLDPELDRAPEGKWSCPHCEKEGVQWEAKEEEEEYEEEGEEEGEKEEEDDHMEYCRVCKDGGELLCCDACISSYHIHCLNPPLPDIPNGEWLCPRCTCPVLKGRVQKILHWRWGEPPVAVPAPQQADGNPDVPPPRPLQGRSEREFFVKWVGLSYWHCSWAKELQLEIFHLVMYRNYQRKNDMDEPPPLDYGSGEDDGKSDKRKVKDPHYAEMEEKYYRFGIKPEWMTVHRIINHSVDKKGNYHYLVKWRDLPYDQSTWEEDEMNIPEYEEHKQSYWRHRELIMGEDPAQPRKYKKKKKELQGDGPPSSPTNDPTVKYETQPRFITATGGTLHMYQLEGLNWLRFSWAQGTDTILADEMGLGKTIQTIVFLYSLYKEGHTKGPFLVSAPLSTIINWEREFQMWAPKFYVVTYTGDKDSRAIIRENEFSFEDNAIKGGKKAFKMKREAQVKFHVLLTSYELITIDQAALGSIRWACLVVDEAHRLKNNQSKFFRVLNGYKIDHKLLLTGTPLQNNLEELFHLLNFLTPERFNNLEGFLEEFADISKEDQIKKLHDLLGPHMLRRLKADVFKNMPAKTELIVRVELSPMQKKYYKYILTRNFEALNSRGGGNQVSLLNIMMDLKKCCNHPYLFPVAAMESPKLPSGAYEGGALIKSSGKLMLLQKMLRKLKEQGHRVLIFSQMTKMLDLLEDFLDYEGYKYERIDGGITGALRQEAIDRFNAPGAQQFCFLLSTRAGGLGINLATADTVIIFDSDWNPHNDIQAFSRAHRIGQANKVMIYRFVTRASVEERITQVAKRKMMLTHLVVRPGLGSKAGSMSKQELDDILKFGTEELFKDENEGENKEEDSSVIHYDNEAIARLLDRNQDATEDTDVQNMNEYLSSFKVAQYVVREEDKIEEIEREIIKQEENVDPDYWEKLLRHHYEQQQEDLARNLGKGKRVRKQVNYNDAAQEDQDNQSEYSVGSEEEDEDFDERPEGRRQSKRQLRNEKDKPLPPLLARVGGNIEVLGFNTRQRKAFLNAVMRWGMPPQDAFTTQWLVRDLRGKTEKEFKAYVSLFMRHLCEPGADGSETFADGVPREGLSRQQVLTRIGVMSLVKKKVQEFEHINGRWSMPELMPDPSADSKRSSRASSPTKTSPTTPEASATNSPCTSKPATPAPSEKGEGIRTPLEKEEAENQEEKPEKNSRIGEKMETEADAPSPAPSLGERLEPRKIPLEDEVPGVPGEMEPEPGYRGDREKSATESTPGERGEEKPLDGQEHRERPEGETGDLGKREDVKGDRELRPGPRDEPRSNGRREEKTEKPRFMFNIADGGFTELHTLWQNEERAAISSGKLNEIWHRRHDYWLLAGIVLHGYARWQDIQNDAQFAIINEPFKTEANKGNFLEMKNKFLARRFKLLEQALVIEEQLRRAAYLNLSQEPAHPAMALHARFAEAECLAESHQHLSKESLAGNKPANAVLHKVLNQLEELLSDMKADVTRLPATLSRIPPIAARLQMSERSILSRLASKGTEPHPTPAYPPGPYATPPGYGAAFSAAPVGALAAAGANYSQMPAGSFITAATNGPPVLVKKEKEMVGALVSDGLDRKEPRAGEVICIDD
Take S824D: the “effect of a mutation on the interaction” value is on record as “decreasing interaction”.

For K554R;K779R;K804R, the “effect of a mutation on the interaction” value was “disrupting interaction”.
